Laboratory results reported in patent publication US20160251419A1.

Target: Recombinant Aβ1-42 (rAβ1-42 peptides) in the Thioflavin T fibril formation assay (UniProt P05067)
Assay: cell-based or functional assay

Recombinant Aβ1-42 (rAβ1-42 peptides) in the Thioflavin T fibril formation assay, sequence (P05067 672-713 limits assumed): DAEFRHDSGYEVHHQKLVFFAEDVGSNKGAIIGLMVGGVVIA

T50 (time in minutes for 50% inhibition of fibril formation): 25.9 min
Substance: control anti-rhodopsin 1D4 antibody (Abcam)
